Our source for the stoichiometry N and K0.5 values is PMC5984625, “Dynamic structural states of ClpB involved in its disaggregation function” (Nature Communications, 2018).

“And” between values parts separate entries of the source, which are not always exact repeats. Identical values can stand only once.

For orientation: stoichiometry N means the number of molecules, sites or subunits per partner or assembly.

The target of data set [1] is N-terminal deletion mutant of TClpB (ΔN-TClpB) (Thermus thermophilus). Briefly: AUC; sedimentation velocity, 20 °C, 42,000 rpm, 50 mM MOPS pH 7.5, 50 mM KCl, 5 mM MgCl2, 0.5 and 2.0 mg/mL protein, with 2 mM ATPγS (preincubated 55 °C 1 min).
Data set [2] shares this target. Briefly: AUC; sedimentation velocity, 20 °C, 42,000 rpm, 50 mM MOPS pH 7.5, 50 mM KCl, 5 mM MgCl2, 0.5 and 2.0 mg/mL protein, with 20 mM ATP (preincubated 55 °C 1 min).
The target is the same in data set [3]. The data set can be described thus: high-speed atomic force microscopy (HS-AFM); self-association; sample preincubated with 2 mM ATP at 55 °C for 1 min, adsorbed on bare mica, imaged at 25 °C in 50 mM MOPS pH 7.5, 20 mM KCl, 5 mM MgCl2 with ATP (10 μM to 2 mM for ΔN-TClpB, 0.5 mM for full length, 1 mM for the mutants; also 1 mM ATPγS or ADP).
Data set [4] shares this target. The data set can be described thus: native MS; incubated at 55 °C with 2 mM ATP or ATPγS for 1 min, exchanged into 150 mM ammonium acetate pH 7.5 with 100 µM ATP or ATPγS at 4 °C; nanoflow electrospray.
For data set [5] the target is unchanged. Briefly: AUC; sedimentation velocity, 20 °C, 42,000 rpm, 50 mM MOPS pH 7.5, 50 mM KCl, 5 mM MgCl2, 0.5 and 2.0 mg/mL protein, with 20 mM ADP (preincubated 55 °C 1 min).
Data set [6] has as its system T1, Nc1ncnc2c1ncn2[C@@H]1O[C@H](COP(=O)(O)OP(=O)(O)OP(=O)(O)O)[C@@H](O)[C@H]1O.
T1 construct: N-terminal domain deletion (AAA1, M-domain and AAA2 kept); from plasmid pMCB1; expressed in E. coli BL21(DE3) or KRX; purified; hexamer and smaller oligomers
Briefly: purified protein. The conditions noted are these: Hill equation fit, Hill coefficient 2.6 ± 0.6, pH 7.5, 20 mM KCl, 5 mM MgCl2, 25 °C. The data set is classed as biochemical, Thermus thermophilus.

The target in data set [7] is ΔN-TClpB hyperactive mutant Y494D (Thermus thermophilus). The data set can be described thus: high-speed atomic force microscopy (HS-AFM); self-association; sample preincubated with 2 mM ATP at 55 °C for 1 min, adsorbed on bare mica, imaged at 25 °C in 50 mM MOPS pH 7.5, 20 mM KCl, 5 mM MgCl2 with ATP (10 μM to 2 mM for ΔN-TClpB, 0.5 mM for full length, 1 mM for the mutants; also 1 mM ATPγS or ADP).

The target of data set [8] is ΔN-TClpB repressed mutant E423A (Thermus thermophilus). Described as above.

Sequence of ΔN-TClpB (Thermus thermophilus HB8) (chain, as listed by the source mutant): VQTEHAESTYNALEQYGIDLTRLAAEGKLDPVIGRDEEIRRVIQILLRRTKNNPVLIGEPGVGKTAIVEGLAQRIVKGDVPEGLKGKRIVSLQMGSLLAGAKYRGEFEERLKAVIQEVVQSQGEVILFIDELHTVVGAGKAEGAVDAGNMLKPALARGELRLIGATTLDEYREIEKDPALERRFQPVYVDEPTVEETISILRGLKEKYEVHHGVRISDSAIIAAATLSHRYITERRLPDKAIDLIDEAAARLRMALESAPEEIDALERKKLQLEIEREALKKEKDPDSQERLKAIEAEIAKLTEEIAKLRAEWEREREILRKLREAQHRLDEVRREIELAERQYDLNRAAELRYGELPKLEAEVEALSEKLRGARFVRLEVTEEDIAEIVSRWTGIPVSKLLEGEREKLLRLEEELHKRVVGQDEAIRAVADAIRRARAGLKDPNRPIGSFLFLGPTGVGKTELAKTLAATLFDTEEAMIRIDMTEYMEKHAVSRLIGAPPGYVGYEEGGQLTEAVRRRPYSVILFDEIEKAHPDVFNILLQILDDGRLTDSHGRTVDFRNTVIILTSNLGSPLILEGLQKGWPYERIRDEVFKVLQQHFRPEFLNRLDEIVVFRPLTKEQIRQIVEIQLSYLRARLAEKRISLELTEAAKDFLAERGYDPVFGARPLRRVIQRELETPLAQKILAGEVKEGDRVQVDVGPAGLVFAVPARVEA

With “N-terminal deletion mutant of TClpB (ΔN-TClpB) (domain or fragment)”, the stoichiometry N in data set [1] was 6; in data set [2], 6 and 3; in data set [3], 6 and 3 to 8 (2×); in data set [4], 2 and 6; in data set [5], under 6.
Substance ΔN-TClpB (Thermus thermophilus HB8) came in with a K0.5 in data set [6] of 0.16 ± 0.02 mM.
“ΔN-TClpB hyperactive mutant Y494D (domain or fragment)” showed a stoichiometry N in data set [7] of 6.
As for “ΔN-TClpB repressed mutant E423A (domain or fragment)”, the stoichiometry N in data set [8] was 6.
